The subject of one test is pro-collagen type 1. Description: pro-collagen type 1 production by human skin fibroblasts. Format: cell-based. The conditions noted are these: TGF-beta, 10 nM, FIG. 21. From the text: To test this we used a cell culture model of skin healing/scarring, which employed the use of primary human skin fibroblasts derived from foreskins collected post circumcision. These have been used extensively in the past to grown in culture and treated with agents that are known to drive wound healing and or scarring. We were also interested in a rare form of skin fibrosis/scarring that can lead to systemic disease and death known as nephrogenic systemic fibrosis (NSF). NSF is a complication of NMR diagnostics in renal impaired patients, where gadolinium (GAD), a heavy metal, is used as a contrast agent, but in some cases appears to deposit in skin. Although the mechanism for development of skin fibrosis and subsequent systemic disease is not yet completely understood, we have developed a model that has allowed elucidation of the probable pathway to skin fibrosis (Bhagavathula, N., M. K. Dame, M. DaSilva, W. Jenkins, M. N. Aslam, P. Perone and J. Varani (2010)). “Fibroblast response to gadolinium: role for platelet-derived growth factor receptor.” Invest Radiol 45(12): 769-777). This disease is characterized as a hyperproliferative disease, and in our model it was shown that PDGF produced by resident skin fibroblasts are stimulated by GAD to increase their production of PDGF which acts to induce proliferation and the increased production of MMPs, regulators of ECM breakdown and thus turnover, including the major MMP, MMP-1. At the same time tissue inhibitors of MMPs (TIMPs) are also affected by exposure to GAD. […]
We examined the role of CCN3 and CCNp in fibroproliferative/fibrotic responses in human dermal fibroblasts exposed to Omniscan, one of the gadolinium-based contrast agents associated with development of nephrogenic systemic fibrosis. […] Cellular proliferation was assessed along with MMP-1 (by ELISA and gelatin zymography), TIMP-1 (by ELISA) and COL1 (by ELISA) in the absence and presence of CCN3 and CCNp. […] In parallel, CCN3 production was assessed in control and Omniscan-treated cells. […]

A further test deals with BTBR Ob/Ob mouse. Description: BTBR Ob/Ob mouse model of diabetic renal disease. Format: in vivo. Here is the method: This was carried out using the BTBR Ob/Ob mouse strain that has a defective leptin receptor that results in increased appetite. As a result it rapidly gains weight over the control strain and becomes hyperglycemic at about one month of age, going on to develop renal disease resembling that in humans. This is regarded by some to be the rodent model best mirroring renal disease in humans as a complication of diabetes. Animals were treated with either rCCN3 (SEQ. ID. NO: 67) or CCNp38 (SEQ. ID. NO: 38) beginning at 9 weeks of age, when early renal disease has been documented. The disease was allowed to develop for 9 weeks, then treatment started. Mice were treated 3 times per week for 8 weeks. At 17 weeks, blood and urine were collected, and animals sacrificed with organ samples collected. The effect of treatment with either CCN3 (2 concentrations, 2 or 20× the circulating amounts) or mimic peptide (CCNp38, 2 concentrations, 20 or 200× the equivalent molar circulating concentration of CCN3) was tested. Assays to determine the effect of CCN3 or peptide on expression of target fibrosis genes and clinical pathology were determined using methods as previously described (Riser, Amer J Pathology 2009) and (McIntosh, L M, et al., Selective CCR2-targeted macrophage depletion ameliorates experimental mesangioproliferative glomerulonephritis, Clinical and Experimental Immunology, 2008, 155, 295-303).
This was carried out using the BT/BR Ob/Ob mouse strain that has a defective leptin receptor that results in increased appetite. As a result mice rapidly gain weight over the control strain and become hyperglycemic at about one month of age going on to develop renal disease resembling that in humans. This is regarded by some to be the best rodent model for mirroring renal disease in humans as a complication of diabetes. […] Animals were treated with either rCCN3 (SEQ. ID. NO: 67) or CCNp38 (SEQ. ID. NO: 38) beginning at 9 weeks of age, when early renal disease has been documented. Mice were treated for 8 weeks, then sacrificed and measured for renal disease and other complications, and the effect drug treatment. Test animals were documented to have developed diabetes by 9 weeks, and were randomized for treatment, thus providing equivalent blood glucose levels in each treated group.

Entries after “also recorded” stand apart in the source; their conditions may differ.

B1: CCN3: full-length recombinant human CCN3 protein (SEQ. ID. No. 67), commercial (Pepro Tech) or made in HEK-293 (protein)
chain: MQVAATQRCPPQCPGRCPATPPTCAPGVRAVLDGCSCCLVCARQRGESCSDLEPCDESSGLYCDRSADPSNQTGICTAVEGDNCVFDGVIYRSGEKFQPSCKFQCTCRDGQIGCVPRCQLDVLLPEPNCPAPRKVEVPGECCEKWICGPDEEDSLGGLTLAAYRPEATLGVEVSDSSVNCIEQTTEWTACSKSCGMGFSTRVTNRNRQCEMLKQTRLCMVRPCEQEPEQPTDKKGKKCLRTKKSLKAIHLQFKNCTSLHTYKPRFCGVCSDGRCCTPHNTKTIQAEFQCSPGQIVKKPVMVIGTCTCHTNCPKNNEAFLQELELKTTRGKM
As for B1, the “block of TGF-beta-induced increase in pro-collagen production” value in the test with pro-collagen type 1 is reported as “completely block the increase”. Moreover, in the test with BTBR Ob/Ob mouse (17 weeks of diabetes, 8 weeks of treatment 3 times per week, FIG. 35), the “effect on elevated plasma creatinine” value was “reduces or blocks this pathology; also recorded: reduces or blocks this impairment”. The “effect on elevated albumin to creatinine ratio” value in the test on BTBR Ob/Ob mouse (17 weeks of diabetes, 8 weeks of treatment, FIG. 36) was “greatly blocks this pathology; also recorded: greatly blocks this renal damage”. Besides, in the test on BTBR Ob/Ob mouse (17 weeks of diabetes, 8 weeks of treatment, FIG. 37), the “effect on mesangial expansion (PAS staining, image analysis)” value is “greatly block this pathology and treats the disease; also recorded: greatly blocks this pathology”. Further, the “effect on increased renal mRNA levels for CCN2” value in the test with BTBR Ob/Ob mouse (kidney, 8 weeks of treatment, FIG. 38) is reported as “greatly reduces or blocks the increase”. Moreover, in the test on BTBR Ob/Ob mouse (kidney, 8 weeks of treatment, FIG. 39), the “effect on increased renal mRNA levels for Col1A2” value is recorded as “greatly reduces or blocks the increase”.

The values are drawn from patent publication US12024544B2, “CCN3 and CCN3 peptides and analogs thereof for therapeutic use” (Rosalind Franklin University of Medicine & Science, priority 2010, dated 2024).
